Target: T1, Src-phosphorylated C3G-AAAP (human, UniProt Q13905-1 4-1077, P283A | P284A | L286 | P287 | P289A | P453A | P454A | L456A | P457A | K459A | …, phosphotyrosines from phosphorylation in vitro with Src (sites not given))
T1 construct: human C3G isoform a, residues 4-1077; only P4 kept, P1, P2 and P3 mutated to Ala; also called pC3G-AAAP; source: E. coli BL21 (DE3), purified; phosphorylated in vitro with the recombinant kinase domain of Src, then SEC; not shown: His, N-terminal, cleaved; Halo, N-terminal, cleaved
T1 sequence (looked up): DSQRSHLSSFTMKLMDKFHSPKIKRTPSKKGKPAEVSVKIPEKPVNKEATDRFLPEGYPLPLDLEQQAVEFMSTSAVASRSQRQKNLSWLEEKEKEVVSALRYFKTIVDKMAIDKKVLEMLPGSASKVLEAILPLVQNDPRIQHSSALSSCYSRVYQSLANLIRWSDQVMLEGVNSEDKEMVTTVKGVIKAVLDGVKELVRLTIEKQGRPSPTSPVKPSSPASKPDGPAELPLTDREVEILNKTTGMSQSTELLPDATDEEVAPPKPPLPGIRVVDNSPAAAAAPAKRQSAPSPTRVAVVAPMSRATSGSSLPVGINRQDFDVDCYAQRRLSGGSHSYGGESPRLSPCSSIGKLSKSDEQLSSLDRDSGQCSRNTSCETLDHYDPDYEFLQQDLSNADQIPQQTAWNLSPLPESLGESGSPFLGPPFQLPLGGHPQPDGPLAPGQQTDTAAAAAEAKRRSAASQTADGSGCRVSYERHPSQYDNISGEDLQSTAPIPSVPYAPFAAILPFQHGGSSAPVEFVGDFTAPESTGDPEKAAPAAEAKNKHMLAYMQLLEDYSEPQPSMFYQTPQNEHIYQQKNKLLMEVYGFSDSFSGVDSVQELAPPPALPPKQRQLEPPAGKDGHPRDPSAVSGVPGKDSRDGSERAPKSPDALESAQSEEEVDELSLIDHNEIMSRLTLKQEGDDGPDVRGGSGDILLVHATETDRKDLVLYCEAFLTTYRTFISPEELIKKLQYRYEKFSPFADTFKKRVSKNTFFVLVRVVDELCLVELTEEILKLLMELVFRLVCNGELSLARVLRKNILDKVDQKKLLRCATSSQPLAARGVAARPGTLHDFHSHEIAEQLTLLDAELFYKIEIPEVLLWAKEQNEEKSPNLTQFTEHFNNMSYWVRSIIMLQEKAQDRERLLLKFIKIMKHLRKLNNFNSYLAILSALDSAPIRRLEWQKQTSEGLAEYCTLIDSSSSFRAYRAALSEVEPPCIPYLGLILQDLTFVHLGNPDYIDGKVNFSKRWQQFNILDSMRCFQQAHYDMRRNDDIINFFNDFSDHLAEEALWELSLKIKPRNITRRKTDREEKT
Test: ITC; single-PRM mutant of C3G in the cell titrated with CrkL or CrkL-SH3N, 25 °C, 300 mM NaCl, pH 7.5; SEDPHAT, 1:1 heteroassociation model; N is the competent fraction of C3G
Conditions: both partners purified

Kd: 2400 nM | stoichiometry N: 0.74
B1: CrkL-SH3N (domain or fragment, human, UniProt P46109 125-182, looked up)
chain: LEYVRTLYDFPGNDAEDLPFKKGEILVIIEKPEEQWWSARNKDGRVGMIPVPYVEKLV
notes: human CrkL, SH3N domain, residues 125-182, in pETEV15b; source: E. coli BL21 (DE3), purified (IMAC, TEV digestion, SEC); not shown: His, N-terminal, cleaved

From publication PMC9896810, “Crk proteins activate the Rap1 guanine nucleotide exchange factor C3G by segregated adaptor-dependent and -independent mechanisms” (Cell Communication and Signaling : CCS, 2023)
